# Source: US20260242478A1 (published 2026)
# B1: Phage-762 (peptide)
# peptide: YCAGHAPQYMEKCL
# notes: Tested as clonal phage supernatant
# B2: Phage-763 (peptide)
# peptide: YCAGHLPQYIAKCL
# notes: as for B1
# B3: Phage-764 (peptide)
# peptide: YCDGHLKEYMAKCL
# notes: as for B1
# B4: Phage-765 (peptide)
# peptide: YCDGHRPEYMEKCL
# notes: as for B1
# B5: Phage-766 (peptide)
# peptide: YCDGHLPEYMGKCL
# notes: as for B1
# B6: Phage-767 (peptide)
# peptide: YCEGHLQEYMEKCL
# notes: as for B1
# B7: Phage-768 (peptide)
# peptide: YCEGHIPEYMAKCL
# notes: as for B1
# B8: Phage-769 (peptide)
# peptide: YCDGHSPEYMPKCL
# notes: as for B1
# B9: Phage-770 (peptide)
# peptide: YCDGHLAEYMPKCL
# notes: as for B1
# B10: Phage-771 (peptide)
# peptide: YCEGHSPEYMWKCL
# notes: as for B1
# B11: Phage-772 (peptide)
# peptide: YCDGHIDEYLQKCL
# notes: as for B1
# B12: Phage-773 (peptide)
# peptide: YCEGHVAEYMLKCL
# notes: as for B1
# B13: Phage-774 (peptide)
# peptide: YCEGHLSEYMSKCL
# notes: as for B1
# B14: Phage-758 (peptide)
# peptide: YCDGHEPQYLEKCL
# notes: as for B1
# B15: Phage-759 (peptide)
# peptide: YCDGHAEEYMSKCL
# notes: as for B1
# B16: Phage-760 (peptide)
# peptide: YCDGHVEEYLYKCL
# notes: as for B1
# B17: Phage-761 (peptide)
# peptide: YCAGHLEEYMDKCL
# notes: as for B1
# B18: Phage-775 (peptide)
# peptide: YCEGHMSEYMAKCL
# notes: not shown: fused to the pIII filament protein of the bacteriophage
# B19: Phage-786 (peptide)
# peptide: YCEGHRSEYMAKCL
# notes: as for B18
# B20: Phage-776 (peptide)
# peptide: YCDGHSWEYIQKCL
# notes: Position 10 is printed as '--' and was read as unchanged (I); not shown: fused to the pIII filament protein of the bacteriophage
# B21: Phage-777 (peptide)
# peptide: YCEGHSLEYMAKCL
# notes: as for B18
# B22: Phage-778 (peptide)
# peptide: YCEGHSYEYMWKCL
# notes: as for B18
# B23: Phage-779 (peptide)
# peptide: YCEGHLPEYMMKCL
# notes: as for B18
# B24: Phage-780 (peptide)
# peptide: YCDGHLPEYMRKCL
# notes: as for B18
# B25: Phage-781 (peptide)
# peptide: YCEGHSPLYMSKCL
# notes: as for B18
# B26: Phage-782 (peptide)
# peptide: YCEGHSWEYIGKCL
# notes: as for B18
# B27: Phage-783 (peptide)
# peptide: YCDGHSALYMSKCL
# notes: as for B18
# B28: Phage-784 (peptide)
# peptide: YCDGHTGVYFYKCL
# notes: as for B18
# B29: Phage-785 (peptide)
# peptide: YCEGHTSEYMNKCL
# notes: as for B18
# B30: Phage-787 (peptide)
# peptide: YCDGHLAMYMDKCL
# notes: as for B18
# B31: Phage-788 (peptide)
# peptide: YCDGHMPEYLAKCL
# B32: Phage-789 (peptide)
# peptide: YCEGHAAEYMSKCL
# B33: Phage-790 (peptide)
# peptide: YCAGHSSEYMWKCL
# B34: Phage-791 (peptide)
# peptide: YCDGHSWAYMWKCL
# B35: Phage-792 (peptide)
# peptide: YCDGHSAAYIMKCL
# B36: Phage-793 (peptide)
# peptide: YCDGHSLQYLGKCL
# B37: Phage-794 (peptide)
# peptide: YCEGHSQEYMQKCL
# Biological target: T1, Anti-CD28 Fab (SEQ ID NOs: 696, 697)
# T1 construct: In the phage ELISA the Fab was biotinylated and captured on neutravidin coated plates
# Assay: phage ELISA; biotinylated anti-CD28 Fab on neutravidin plate, clonal phage supernatant, anti-M13 HRP detection;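 note: crude supernatants of single phage clones picked after panning were screened for binding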
# T1 sequence (VH, as listed by the source, chain 1 of 2): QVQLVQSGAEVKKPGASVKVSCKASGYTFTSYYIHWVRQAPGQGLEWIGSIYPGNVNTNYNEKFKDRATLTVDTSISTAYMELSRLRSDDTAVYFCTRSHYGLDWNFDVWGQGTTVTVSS
# T1 sequence (VL, as listed by the source, chain 2 of 2): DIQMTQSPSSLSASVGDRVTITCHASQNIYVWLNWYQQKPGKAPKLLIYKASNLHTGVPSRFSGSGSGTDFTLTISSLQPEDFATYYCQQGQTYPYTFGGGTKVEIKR
row,Binder,"Phage binding ELISA, Anti-CD28 Fab signal"
1,B1,1.9
2,B2,1.9
3,B3,1.9
4,B4,1.9
5,B5,1.89
6,B6,1.89
7,B7,1.89
8,B8,1.89
9,B9,1.89
10,B10,1.89
11,B11,1.88
12,B12,1.88
13,B13,1.88

# Biological target: T2, Anti-CD28 Fab (SEQ ID NOs: 696, 697)
# T2 construct: The Fab was biotinylated and captured on neutravidin coated plates in the phage ELISA
# Assay: phage binding ELISA on anti-CD28 Fab plate; competitor: CD28 antigen pre-incubated in the wells
# T2 sequence (VH, as listed by the source, chain 1 of 2): as the sequence (VH, as listed by the source, chain 1 of 2) above
# T2 sequence (VL, as listed by the source, chain 2 of 2): as the sequence (VL, as listed by the source, chain 2 of 2) above
# Procedure: (§1) After panning, phage infected bacteria were plated out and colonies picked into 96 well blocks. Clonal phage was then amplified and separated from bacterial cells via centrifugation.
# (§2) Clonal phage were harvested as crude supematants and screened via standard ELISAs. […] Prior to the addition of clonal phage, wells were incubated with blocking buffer and CD28 antigen or blocking buffer alone. Without washing or aspirating, clonal phage supematants were then added to the wells and incubated for a short time. Wells were then washed followed by detection of bound phage using a horse radish conjugated anti-M13 antibody. Clonal phage of interest were then sent for sequence analysis.
row,Binder,Anti-CD28 Fab signal in the presence of CD28
1,B14,0.08
2,B15,0.09
3,B16,0.06
4,B17,0.06

# Biological target: T3, Anti-CD28 Fab (SEQ ID NOs: 696, 697)
# T3 construct: Biotinylated Fab captured on neutravidin coated plates in the phage ELISA
# Assay: phage ELISA; biotinylated anti-CD28 Fab on neutravidin plate, bound phage detected with anti-M13 HRP antibody
# T3 sequence (VH, as listed by the source, chain 1 of 2): as the sequence (VH, as listed by the source, chain 1 of 2) above
# T3 sequence (VL, as listed by the source, chain 2 of 2): as the sequence (VL, as listed by the source, chain 2 of 2) above
# Procedure: as §1, §2
row,Binder,Anti-CD28 Fab signal (phage binding ELISA)
1,B18,1.88
2,B19,1.86
3,B20,1.88
4,B21,1.88
5,B22,1.88
6,B23,1.88
7,B24,1.88
8,B25,1.87
9,B26,1.87
10,B27,1.87
11,B28,1.87
12,B29,1.87
13,B30,1.86

# Biological target: T1, Anti-CD28 Fab (SEQ ID NOs: 696, 697)
# Assay: phage ELISA on anti-CD28 Fab pre-incubated with CD28 antigen as competitor, anti-M13 HRP detection
row,Binder,"Phage binding ELISA, Anti-CD28 Fab signal in the presence of CD28"
1,B1,0.08
2,B2,0.09
3,B3,0.07
4,B4,0.06
5,B5,0.11
6,B6,0.1
7,B7,0.06
8,B8,0.08
9,B9,0.07
10,B10,0.09
11,B11,0.06
12,B12,0.05
13,B13,0.09

# Biological target: T3, Anti-CD28 Fab (SEQ ID NOs: 696, 697)
# Assay: phage ELISA on captured anti-CD28 Fab; competitor CD28 antigen pre-incubated in the wells;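 note: clonal phage supernatants added to wells preloaded with CD28 antigen in blocking buffer, control wells buffer only, bound phage read via HRP-linked anti-M13 antibody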
# Procedure: as §1, §2
row,Binder,Anti-CD28 Fab signal in the presence of CD28 (phage binding ELISA)
1,B18,0.11
2,B19,0.06
3,B20,0.07
4,B21,0.08
5,B22,0.08
6,B23,0.27
7,B24,0.08
8,B25,0.09
9,B26,0.07
10,B27,0.08
11,B28,0.08
12,B29,0.06
13,B30,0.08

# Biological target: T2, Anti-CD28 Fab (SEQ ID NOs: 696, 697)
# Assay: phage binding ELISA; biotinylated anti-CD28 Fab on neutravidin plate, bound phage detected with anti-M13 HRP;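 note: crude supernatants of clonal phage screened, wells pretreated with blocking buffer with or without CD28 antigen before brief phage incubation, washed, then bound phage detected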
# Procedure: as §1, §2
row,Binder,"Anti-CD28 Fab (SEQ ID NOs: 696, 697) signal"
1,B14,1.9
2,B15,1.9
3,B16,1.9
4,B17,1.9

# Biological target: Anti-CD28 Fab (SEQ ID NOs: 696, 697)
# Assay: phage binding ELISA; biotinylated anti-CD28 Fab on neutravidin plate, clonal phage supernatant, anti-M13 HRP detection
# Target sequence in this assay (VH, as listed by the source, chain 1 of 2): as the sequence (VH, as listed by the source, chain 1 of 2) above
# Target sequence in this assay (VL, as listed by the source, chain 2 of 2): as the sequence (VL, as listed by the source, chain 2 of 2) above
row,Binder,Anti-CD28 Fab signal (phage binding ELISA)
1,B31,1.86
2,B32,1.86
3,B33,1.85
4,B34,1.85
5,B35,1.84
6,B36,1.84
7,B37,1.84

# Biological target: Anti-CD28 Fab (SEQ ID NOs: 696, 697)
# Assay: phage binding ELISA; anti-CD28 Fab on plate pre-incubated with CD28 antigen as competitor, anti-M13 HRP detection
# Target sequence in this assay (VH, as listed by the source, chain 1 of 2): as the sequence (VH, as listed by the source, chain 1 of 2) above
# Target sequence in this assay (VL, as listed by the source, chain 2 of 2): as the sequence (VL, as listed by the source, chain 2 of 2) above
# Procedure: as §1, §2
row,Binder,Anti-CD28 Fab signal in the presence of CD28 (phage binding ELISA)
1,B31,0.07
2,B32,0.07
3,B33,0.07
4,B34,0.13
5,B35,0.09
6,B36,0.09
7,B37,0.05
